Data as given in patent US11390653B2, “Amino acid-specific binder and selectively identifying an amino acid” (priority 2018, dated 2022).

How the values were obtained:
F1G2 peptide [1] = experiment: SPR, peptide on streptavidin chip, ClpS2 variant protein in solution; format: binding; conditions: for specificity between N-terminal Phe and Trp, in words: from SPR binding data
Procedure: (§1) With regard to surface plasmon resonance (SPR), SPR data was collected by loading a streptavidin chip with the target biotinylated peptides in each of the four channels, and then flowing the protein over the chip at each concentration for 180 seconds before washing with 50 mM Tris-HCl, pH 8.0, 300 mM NaCl, 1 mM DTT, 5% glycerol buffer for 180 seconds. […] The four channels were used such that the negative control peptide (A1G2) was in channel 1, F1G2 in channel 2, W1G2 in channel 3, and Y1G2 in channel 4. The negative control peptide channel was used as a baseline for subtraction, which accommodates both any non-specific binding and refractive index change. A steady state response at each concentration was plotted and fit to calculate the KD, while the resonance units vs. time was used to calculate a koff for each mutant protein with each peptide.
(§2) Regarding characterization of the ClpS mutant protein binding kinetics, for peptide sequencing via some recently proposed methods reagents can bind peptides affixed to a surface. Two A. tumefaciens ClpS2 protein variants (V2, described above, and V1) were expressed and purified from E. coli. […] The binding properties of each variant were analyzed using surface plasmon resonance (SPR).

Y1G2 peptide = experiment: as above; format: binding
Procedure: as §1, §2

W1G2 peptide [2] = format: binding
Procedure: as §1, §2

F1G2 peptide [3] = experiment: yeast/peptide colorimetric pull-down assay; format: binding; conditions: yeast-displayed protein
Procedure: (§3) Incubation and wash steps were repeated.

Leu NAA peptide = experiment: yeast/peptide colorimetric pull-down assay; format: binding; conditions: yeast-displayed protein
Procedure: as §3

Tyr NAA peptide = experiment: yeast/peptide colorimetric pull-down assay; format: binding; conditions: yeast-displayed protein
Procedure: as §3

[4] = thermal stability by intrinsic protein fluorescence; format: physicochemical; conditions: compared with wild-type and V1
Procedure: The thermal stability of the variants was assessed. Each variant was loaded in 3×PBS at approximately 1 mg/mL concentration in capillary tubes and the intrinsic protein fluorescence recorded at 330 nm and 350 nm while heating the sample over a 35-95° C. at a rate of […].

W1G2 peptide [5] = target: T1, W1G2 peptide (Agrobacterium fabrum, UniProt Q8UD95, E37S/P35C/R36P); format: binding; design: His6 (N); TEV protease cleavage site (N); made in house; host or cells: BL21 Escherichia coli; conditions: SPR
Procedure: as §1, §2

W1G2 peptide [6] = target: T1, W1G2 peptide; experiment: flow cytometry of yeast displaying ClpS proteins; format: binding; design: factor Xa cleavage site (N); expressed in transfected cells; host or cells: Saccharomyces cerevisiae EBY100, pCTCON2 library clone; conditions: yeast-displayed protein
Procedure: After two rounds of MACs selection, the library was sorted by flow cytometry. […] A typical reaction contained 100 μL of cells (containing approximately 10^6 cells), 10 μL of peptide at a concentration between 10 nM to 10 μM, and 25 μL of a master mix containing 2 μL of an anti-myc antibody, 4 μL of the SAPE (streptavidin, R-phycoerythrin conjugate—1 mg/mL) and 19 μL of PBS/BSA for each sample.
Cells were washed with PBS/BSA and sorted using a FACS Aria cytometer and collected in 1 mL of SD-CAA media. The number of cells that bound the peptide improved with each round and were sorted with sequentially lower concentrations of peptide to increase the stringency of the selection. […]
With regard to directed evolution of ClpS, random mutagenesis and screening was used to select proteins with higher affinity binding to the target NAA. In subsequent steps, specific residues were determined from initial screens with a targeted mutagenesis step. […] Using FACS, we assessed the affinity of each mutant for the N-terminal amino acid on the target peptide based on which quadrant the fluorescent signal fell into as shown in FIG. 15. […] If there is also a high fluorescence signal along the x-axis (streptavidin-PE) then the peptide is presumably bound to the protein variant, and the signal will appear in Q2. […]

[7] = relative specificity factor, ratio of binding affinities

B1: A. tumefaciens ClpS2 [Cys34 Pro35 Ser36] (protein, listed as Escherichia coli)
chain: SDSPVDLKPKPKVKPKLERPKLYKVMLLNDDYTCPSFVTVVLKAVFRMSEDTGRRVMMTAHRFGSAVVVVCERDIAETKAKEATDLGKEAGFPLMFTTEPEE
notes: ClpS2 variant, native residues 34-36 ProArgGlu mutated to CysProSer
dissociation rate slowed over wild-type, Phe (F1G2 peptide [1]; SPR): 27.9 fold | specificity between N-terminal Phe and Trp, in words (F1G2 peptide [1]): more specific for Phe over Trp than the wild-type protein | specificity between N-terminal Phe and Trp, in words (F1G2 peptide [1]; listed as CysProSer variant): selectively bound to Trp over Phe | KOFF Phe (F1G2 peptide [1]; from SPR dissociation curves): 0.03 s⁻¹ | affinity for N-terminal Phe relative to wild-type, in words (F1G2 peptide [1]; in vitro surface binding assays): greater affinity | Selectivity for Phe, Phe/Phe (F1G2 peptide [1]; [7]): 1.0 | Selectivity for Phe, Phe/Trp (F1G2 peptide [1]; [7]): 1.32 | Selectivity for Phe, Phe/Tyr (F1G2 peptide [1]; [7]): 0.10 | Kd (F1G2 peptide [1]; steady state, peptide on surface, 0 to 50 μM protein, read-out: KD Phe): 3.7 ± 0.3 µM | KOFF Tyr (Y1G2 peptide; from SPR dissociation curves): 0.05 s⁻¹ | Selectivity for Tyr, Tyr/Phe (Y1G2 peptide; [7]): 9.82 | Selectivity for Tyr, Tyr/Trp (Y1G2 peptide; [7]): 12.91 | Selectivity for Tyr, Tyr/Tyr (Y1G2 peptide; [7]): 1.0 | Kd (Y1G2 peptide; steady state, peptide on surface, 0 to 50 μM protein, read-out: KD Tyr): 36.1 ± 4.4 µM | KOFF Trp (W1G2 peptide [2]; from SPR dissociation curves): 0.03 s⁻¹ | affinity for N-terminal Trp relative to wild-type, in words (W1G2 peptide [2]; in vitro surface binding assays / SPR): greater affinity | Selectivity for Trp, Trp/Phe (W1G2 peptide [2]; [7]): 0.76 | Selectivity for Trp, Trp/Trp (W1G2 peptide [2]; [7]): 1.0 | Selectivity for Trp, Trp/Tyr (W1G2 peptide [2]; [7]): 0.08 | Kd (W1G2 peptide [2]; steady state, peptide on surface, 0 to 50 μM protein, read-out: KD Trp): 2800 ± 300 nM | affinity for F1G2 peptide compared to wild-type (F1G2 peptide [3]): increased binding affinity | binding to Leu (Leu NAA peptide): increased affinity | binding affinity to Tyr compared to wild-type (Tyr NAA peptide): increased binding affinity | thermal stability [4]: not as thermally stable | decrease in KD for W1G2 peptide compared to wild-type (W1G2 peptide [5]): 6.6 fold | dissociation rate slowed over wild-type, Trp (W1G2 peptide [5]): 51.3 fold | affinity for W1G2 peptide compared to wild-type (W1G2 peptide [6]): improved affinity
